Patent US20240390423A1 (published 2024)

T1: CTNNB1 wild type (S37) peptide on HLA-A*02:01 (human)
T1 peptide: YLDSGIHSGA

T2: CTNNB1 S37F peptide on HLA-A*02:01 (human)
T2 peptide: YLDSGIHFGA

B1: CTNNB1^S37F peptide specific TCR (the inventive TCR) (TCR, V domains shown)
Valpha: AQKVTQAQTEISVVEKEDVTLDCVYETRDTTYYLFWYKQPPSGELVFLIRRNSFDEQNEISGRYSWNFQKSTSSFNFTITASQVVDSAVYFCALSERPGYSTLTFGKGTMLLVSP
Vbeta: DAGVIQSPRHEVTEMGQEVTLRCKPISGHDYLFWYRQTMMRGLELLIYFNNNVPIDDSGMPEDRFSAKMPNASFSTLKIQPSEPRDSAVYFCASGTPSTYEQYFGPGTRLTVT
B2: inventive TCR specific for the mutated CTNNB1^S37F peptide in the context of HLA-A2, with murine constant regions, expressed from lentiviral vector pCDH-CTNNB1 … (TCR)
TCR alpha: AQKVTQAQTEISVVEKEDVTLDCVYETRDTTYYLFWYKQPPSGELVFLIRRNSFDEQNEISGRYSWNFQKSTSSFNFTITASQVVDSAVYFCALSERPGYSTLTFGKGTMLLVSPDIQNPEPAVYQLKDPRSQDSTLCLFTDFDSQINVPKTMESGTFITDKTVLDMKAMDSKSNGAIAWSNQTSFTCQDIFKETNATYPSSDVPCDATLTEKSFETDMNLNFQNLSVMGLRILLLKVAGFNLLMTLRLWSS
TCR beta: DAGVIQSPRHEVTEMGQEVTLRCKPISGHDYLFWYRQTMMRGLELLIYFNNNVPIDDSGMPEDRFSAKMPNASFSTLKIQPSEPRDSAVYFCASGTPSTYEQYFGPGTRLTVTEDLRNVTPPKVSLFEPSKAEIANKQKATLVCLARGFFPDHVELSWWVNGKEVHSGVSTDPQAYKESNYSYCLSSRLRVSATFWHNPRNHFRCQVQFHGLSEEDKWPEGSPKPVTQNISAEAWGRADCGITSASYQQGVLSATILYEILLGKATLYAVLVSTLVVMAMVKRKNS

How the values were obtained:
[1] = molecular target: T1, CTNNB1 wild type (S37) peptide on …; test: activation reporter or marker
[2] = molecular target: T2, CTNNB1 S37F peptide on HLA-A*02:01; test: CD69 by flow cytometry on GFP+ JRT (J.RT3-T3.5) cells transduced with pCDH-CTNNB1; T2 cells pulsed with a 10x dilution series of peptide from 1 µg/ml, 16 h; dose-dependent; full-length, on cells
[3] = molecular target: T2, CTNNB1 S37F peptide on HLA-A*02:01; test: CD137 by flow cytometry on GFP+ CD8+ PBMC-derived T cells transduced with pCDH-CTNNB1; T2 cells pulsed with a 10x dilution series of peptide from 1 µg/ml, 24 h; dose-dependent; full-length, on cells
[4] = molecular target: mutated CTNNB1^S37F peptide presented by HLA-A2 on target cells (T2 cells pulsed with the peptide; HUTU80 tumor cells with endogenous CTNNB1^S37F) (human); test: cell-based or functional assay

Binder | binding result [1] | lowest activating peptide concentration (twofold CD69+ over no peptide) [2] | lowest activating peptide concentration (twofold CD8+CD137+ over no peptide) [3] | percentage of CD8+CD137+ cells in gated GFP+ transduced PBMC T cells after 24 h co-culture with peptide-pulsed T2 cells; lowest peptide concentration giving a twofold increase over no peptide [4] | percentage of CD69+ cells in gated GFP+ JRT cells after 16 h co-culture with peptide-pulsed T2 cells; lowest peptide concentration giving a twofold increase over no peptide [4]
B1 | no recognition | ~0.5 ng/mL | 1 ng/mL |  | 
B2 |  |  |  | 1 ng/mL | 0.5 ng/mL
